Reference: IntAct's records for PubMed 26524528

B1: Lamin-B1 (Homo sapiens), P20700 (parent)
chain: MATATPVPPRMGSRAGGPTTPLSPTRLSRLQEKEELRELNDRLAVYIDKVRSLETENSALQLQVTEREEVRGRELTGLKALYETELADARRALDDTARERAKLQIELGKCKAEHDQLLLNYAKKESDLNGAQIKLREYEAALNSKDAALATALGDKKSLEGDLEDLKDQIAQLEASLAAAKKQLADETLLKVDLENRCQSLTEDLEFRKSMYEEEINETRRKHETRLVEVDSGRQIEYEYKLAQALHEMREQHDAQVRLYKEELEQTYHAKLENARLSSEMNTSTVNSAREELMESRMRIESLSSQLSNLQKESRACLERIQELEDLLAKEKDNSRRMLTDKEREMAEIRDQMQQQLNDYEQLLDVKLALDMEISAYRKLLEGEEERLKLSPSPSSRVTVSRASSSRSVRTTRGKRKRVDVEESEASSSVSISHSASATGNVCIEEIDVDGKFIRLKNTSEQDQPMGGWEMIRKIGDTSVSYKYTSRYVLKAGQTVTIWAANAGVTASPPTDLIWKNQNSWGTGEDVKVILKNSQGEEVAQRSTVFKTTIPEEEEEEEEAAGVVVEEELFHQQGTPRASNRSCAIM

Variants of: B1
Settings: with mlp3b_human MAP1LC3B

effect of a mutation on the interaction	Variant
decreasing interaction strength	MATATPVPPRMGSRAGGPTTPLSPTRLSRLQEKEELRELNDRLAVYIDKVRSLETENSALQLQVTEREEVRGRELTGLKALYETELADARRALDDTARERAKLQIELGKCKAEHDQLLLNYAKKESDLNGAQIKLREYEAALNSKDAALATALGDKKSLEGDLEDLKDQIAQLEASLAAAKKQLADETLLKVDLENRCQSLTEDLEFRKSMYEEEINETRRKHETRLVEVDSGRQIEYEYKLAQALHEMREQHDAQVRLYKEELEQTYHAKLENARLSSEMNTSTVNSAREELMESRMRIESLSSQLSNLQKESRACLERIQELEDLLAKEKDNSRRMLTDKEREMAEIRDQMQQQLNDYEQLLDVKLALDMEISAYRKLLEGEEERLKLSPSPSSRATVSRASSSRSVRTTRGKRKRVDVEESEASSSVSISHSASATGNVCIEEIDVDGKFIRLKNTSEQDQPMGGWEMIRKIGDTSVSYKYTSRYVLKAGQTVTIWAANAGVTASPPTDLIWKNQNSWGTGEDVKVILKNSQGEEVAQRSTVFKTTIPEEEEEEEEAAGVVVEEELFHQQGTPRASNRSCAIM [V398A]
disrupting interaction strength	MATATPVPPRMGSRAGGPTTPLSPTRLSRLQEKEELRELNDRLAVYIDKVRSLETENSALQLQVTEREEVRGRELTGLKALYETELADARRALDDTARERAKLQIELGKCKAEHDQLLLNYAKKESDLNGAQIKLREYEAALNSKDAALATALGDKKSLEGDLEDLKDQIAQLEASLAAAKKQLADETLLKVDLENRCQSLTEDLEFRKSMYEEEINETRRKHETRLVEVDSGRQIEYEYKLAQALHEMREQHDAQVRLYKEELEQTYHAKLENARLSSEMNTSTVNSAREELMESRMRIESLSSQLSNLQKESRACLERIQELEDLLAKEKDNSRRMLTDKEREMAEIRDQMQQQLNDYEQLLDVKLALDMEISAYRKLLEGEEERLKLSPAPAAAATVSRASSSRSVRTTRGKRKRVDVEESEASSSVSISHSASATGNVCIEEIDVDGKFIRLKNTSEQDQPMGGWEMIRKIGDTSVSYKYTSRYVLKAGQTVTIWAANAGVTASPPTDLIWKNQNSWGTGEDVKVILKNSQGEEVAQRSTVFKTTIPEEEEEEEEAAGVVVEEELFHQQGTPRASNRSCAIM [S393A;S395A;S396A;R397A;V398A]
decreasing interaction strength	MATATPVPPRMGSRAGGPTTPLSPTRLSRLQEKEELRELNDRLAVYIDKVRSLETENSALQLQVTEREEVRGRELTGLKALYETELADARRALDDTARERAKLQIELGKCKAEHDQLLLNYAKKESDLNGAQIKLREYEAALNSKDAALATALGDKKSLEGDLEDLKDQIAQLEASLAAAKKQLADETLLKVDLENRCQSLTEDLEFRKSMYEEEINETRRKHETRLVEVDSGRQIEYEYKLAQALHEMREQHDAQVRLYKEELEQTYHAKLENARLSSEMNTSTVNSAREELMESRMRIESLSSQLSNLQKESRACLERIQELEDLLAKEKDNSRRMLTDKEREMAEIRDQMQQQLNDYEQLLDVKLALDMEISAYRKLLEGEEERLKLSPAPAAAVTVSRASSSRSVRTTRGKRKRVDVEESEASSSVSISHSASATGNVCIEEIDVDGKFIRLKNTSEQDQPMGGWEMIRKIGDTSVSYKYTSRYVLKAGQTVTIWAANAGVTASPPTDLIWKNQNSWGTGEDVKVILKNSQGEEVAQRSTVFKTTIPEEEEEEEEAAGVVVEEELFHQQGTPRASNRSCAIM [S393A;S395A;S396A;R397A]
decreasing interaction strength	MATATPVPPRMGSRAGGPTTPLSPTRLSRLQEKEELRELNDRLAVYIDKVRSLETENSALQLQVTEREEVRGRELTGLKALYETELADARRALDDTARERAKLQIELGKCKAEHDQLLLNYAKKESDLNGAQIKLREYEAALNSKDAALATALGDKKSLEGDLEDLKDQIAQLEASLAAAKKQLADETLLKVDLENRCQSLTEDLEFRKSMYEEEINETRRKHETRLVEVDSGRQIEYEYKLAQALHEMREQHDAQVRLYKEELEQTYHAKLENARLSSEMNTSTVNSAREELMESRMRIESLSSQLSNLQKESRACLERIQELEDLLAKEKDNSRRMLTDKEREMAEIRDQMQQQLNDYEQLLDVKLALDMEISAYRKLLEGEEERLKLSPAPASRVTVSRASSSRSVRTTRGKRKRVDVEESEASSSVSISHSASATGNVCIEEIDVDGKFIRLKNTSEQDQPMGGWEMIRKIGDTSVSYKYTSRYVLKAGQTVTIWAANAGVTASPPTDLIWKNQNSWGTGEDVKVILKNSQGEEVAQRSTVFKTTIPEEEEEEEEAAGVVVEEELFHQQGTPRASNRSCAIM [S393A;S395A]
decreasing interaction strength	MATATPVPPRMGSRAGGPTTPLSPTRLSRLQEKEELRELNDRLAVYIDKVRSLETENSALQLQVTEREEVRGRELTGLKALYETELADARRALDDTARERAKLQIELGKCKAEHDQLLLNYAKKESDLNGAQIKLREYEAALNSKDAALATALGDKKSLEGDLEDLKDQIAQLEASLAAAKKQLADETLLKVDLENRCQSLTEDLEFRKSMYEEEINETRRKHETRLVEVDSGRQIEYEYKLAQALHEMREQHDAQVRLYKEELEQTYHAKLENARLSSEMNTSTVNSAREELMESRMRIESLSSQLSNLQKESRACLERIQELEDLLAKEKDNSRRMLTDKEREMAEIRDQMQQQLNDYEQLLDVKLALDMEISAYRKLLEGEEERLKLSPSPSAAVTVSRASSSRSVRTTRGKRKRVDVEESEASSSVSISHSASATGNVCIEEIDVDGKFIRLKNTSEQDQPMGGWEMIRKIGDTSVSYKYTSRYVLKAGQTVTIWAANAGVTASPPTDLIWKNQNSWGTGEDVKVILKNSQGEEVAQRSTVFKTTIPEEEEEEEEAAGVVVEEELFHQQGTPRASNRSCAIM [S396A;R397A]
decreasing interaction strength	MATATPVPPRMGSRAGGPTTPLSPTRLSRLQEKEELRELNDRLAVYIDKVRSLETENSALQLQVTEREEVRGRELTGLKALYETELADARRALDDTARERAKLQIELGKCKAEHDQLLLNYAKKESDLNGAQIKLREYEAALNSKDAALATALGDKKSLEGDLEDLKDQIAQLEASLAAAKKQLADETLLKVDLENRCQSLTEDLEFRKSMYEEEINETRRKHETRLVEVDSGRQIEYEYKLAQALHEMREQHDAQVRLYKEELEQTYHAKLENARLSSEMNTSTVNSAREELMESRMRIESLSSQLSNLQKESRACLERIQELEDLLAKEKDNSRRMLTDKEREMAEIRDQMQQQLNDYEQLLDVKLALDMEISAYRKLLEGEEERLKLSPSPAARVTVSRASSSRSVRTTRGKRKRVDVEESEASSSVSISHSASATGNVCIEEIDVDGKFIRLKNTSEQDQPMGGWEMIRKIGDTSVSYKYTSRYVLKAGQTVTIWAANAGVTASPPTDLIWKNQNSWGTGEDVKVILKNSQGEEVAQRSTVFKTTIPEEEEEEEEAAGVVVEEELFHQQGTPRASNRSCAIM [S395A;S396A]
